{"source": "patent US12636342B2", "about": "“TARS derived from Akkermansia muciniphila or fragment thereof, and use thereof” (KOREA RESEARCH INSTITUTE OF BIOSCIENCE AND BIOTECHNOLOGY, priority 2020, dated 2026)", "molecules": {"B1": {"name": "Akkermansia muciniphila-derived threonyl-tRNA synthetase (TARS) (protein)", "chain": "MSEHKERKTLEERQQMSDLERLRHSCAHVLATAICRLWPDAQLAGGPAVDNGFYYDVELDHRISTEDFERIEEEMKKVVKENQVFQKEVISRADAMKMAESGELGALGPRSEPSRFKIDLLNDIPEDEEISLYRNGDFTDLCAGPHVGRTGNCKAFKIMSVASAFYKGDKNRPMLQRIYGTCFPNRTQLDEHLERLEEARRRDHRKLGRELGLFCIDESVGQGLILWKPKGALIRRSLQDFITEELDKLGYSQVYTPNIGKLDLYRTSGHFPYYQESQYAPIPERDAMEKLSQEGASCAELFNGLATGTIEGYMLKPMNCPHHIKIYANDAHSYRDLPVRLAEFGTVYRWEQSGELGGMTRVRGFTQDDAHIFCTPDQLAGEIRQCLGIVKTIFGTLGMTDYRVRLSMRDPESDKYVGSPENWDKAEQALREAAEWLGADYSEEAGEAAFYGPKIDFIVRDAIGREWQLGTVQVDYNLPERFDLHYTGADNKPHRPVMVHRAPFGSMERFTGLLIEHFEGKFPTWLSPEQVRVLPISDKVTDVAAAHRTALAARGVRVTVDETPDKIGAKIRNARLDRVPYMLVLGQREAEDGTVSVRHRDKGDLGAMPFEQFADLVAREIAERHISPVI", "modifications": "Akkermansia muciniphila TARS"}}, "key": {"macrophages (F4/80+)": {"system": "macrophages (F4/80+)", "experiment": "Identification of cells targeted by injected AmTARS (flow cytometry of PECs, colon immunofluorescence)", "assay_type": "in vivo, mouse", "conditions": "Mac2 immunofluorescence, His-tagged AmTARS 0.2 mg kg-1, 1 day", "description": "To identify the cells targeted by AmTARS, mice with injected i.p. with fluorescently labeled AmTARS, and fluorescence-positive cells in peritoneal exudate cells (PECs), were analyzed by flow cytometry. […] Next, we used a Mac-2 immunofluorescence antibody to test whether i.p.-injected AmTARS targets intestinal macrophages. Intense expression of Mac2 was detected in colonic epithelium, as well as in macrophages located in the lamina propria."}, "[1]": {"system": "macrophage-depleted colitis mice", "experiment": "DSS-induced colitis in macrophage-depleted (Clodrosome) mice", "assay_type": "in vivo, mouse", "description": "To further validate the macrophage-dependent function of AmTARS in improving colitis, we investigated the anti-inflammatory effects of AmTARS in macrophage-depleted colitis mice.\nA macrophage-deficient mice were prepared by administration of Clodrosome (administered at a concentration of 200 μL/animal to the abdominal cavity of mice a total of three times on Days 1, 5, and 8), and then the anti-inflammatory efficacy experiment was conducted by way of the same method as in Example 5. Normal mice injected with Encapsome were used as a control."}, "[2]": {"system": "B cell-deficient μMut mice", "experiment": "DSS-induced inflammatory bowel disease in B cell-deficient μMut mice", "assay_type": "in vivo, mouse", "description": "To determine whether the inflammatory bowel disease alleviation effect induced through the secretion of IL-10 cytokine by AmTARS corresponded to a B cell-mediated effect, DSS was administered to B cell-deficient μMut mice (μ heavy chain mutation mice, B cell depletion mice) by way of the same method as in Example 5 to induce inflammatory bowel disease, and AmTARS was administered."}, "Raw 264.7 cells": {"system": "Raw 264.7 cells", "experiment": "ELISA of immune cytokine secretion in LPS-treated Raw 264.7 cells", "assay_type": "cell-based, mouse", "conditions": "Raw 264.7, LPS, 24 h", "description": "Next, to determine whether the regulation of immune cytokine secretion by AmTARS in an inflammatory environment was induced by the two functional sites, the mouse-derived immune cell Raw 264.7 cells were treated with LPS to induce an immune response by the method as in Example 3, and treated with AmTARS, ΔU1AmTARS, and ΔU2AmTARS for 24 h separately to obtain cell cultures. The obtained cell cultures were analyzed for Immune cytokine secretion by way of the same method as in Example 2."}, "TLR4": {"target": "T1, TLR4 (Homo sapiens, UniProt O00206)", "T1 construct": "FLAG (C); expressed in transfected cells; host or cells: HEK 293T", "T1 sequence (O00206 24-839)": "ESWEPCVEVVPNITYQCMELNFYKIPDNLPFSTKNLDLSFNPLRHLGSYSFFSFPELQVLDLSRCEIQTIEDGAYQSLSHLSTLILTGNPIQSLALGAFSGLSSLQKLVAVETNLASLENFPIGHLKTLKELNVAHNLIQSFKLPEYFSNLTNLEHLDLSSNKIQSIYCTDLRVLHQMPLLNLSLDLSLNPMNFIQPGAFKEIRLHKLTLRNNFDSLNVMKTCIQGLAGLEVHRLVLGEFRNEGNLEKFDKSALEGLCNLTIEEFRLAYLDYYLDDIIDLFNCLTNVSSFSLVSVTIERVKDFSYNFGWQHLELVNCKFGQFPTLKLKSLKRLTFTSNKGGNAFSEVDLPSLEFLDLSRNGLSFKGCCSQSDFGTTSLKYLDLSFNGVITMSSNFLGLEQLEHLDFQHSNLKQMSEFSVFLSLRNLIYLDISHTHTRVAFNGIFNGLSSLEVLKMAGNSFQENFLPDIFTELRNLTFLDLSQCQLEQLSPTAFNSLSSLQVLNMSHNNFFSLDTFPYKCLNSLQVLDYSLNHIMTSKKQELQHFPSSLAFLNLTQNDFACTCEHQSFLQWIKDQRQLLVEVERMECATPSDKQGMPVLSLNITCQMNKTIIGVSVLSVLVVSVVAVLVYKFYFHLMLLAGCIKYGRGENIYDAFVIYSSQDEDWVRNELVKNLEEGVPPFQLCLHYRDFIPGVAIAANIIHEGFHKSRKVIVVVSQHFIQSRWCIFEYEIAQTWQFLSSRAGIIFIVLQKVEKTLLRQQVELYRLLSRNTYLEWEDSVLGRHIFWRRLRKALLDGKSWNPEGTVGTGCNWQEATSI", "experiment": "Pull-down assay with TLR4 in HEK 293T cells", "assay_type": "binding", "conditions": "Strep-AmTARS and TLR4-FLAG", "from_the_text": "(A) AmTARS-interacting candidates identified from membrane protein interactome analysis. Potential interactors (receptors) involved in innate immunity are indicated in red. (B-D) Pull-down of Strep-AmTARS co-expressed with NLRX1-FLAG (B), CD163-FLAG (C), and TLR4-FLAG (D) in HEK 293T cells. Data shown are representative of three independent experiments, each with similar results.\nThen, Strep-tagged AmTARS, AmTARS having deletions of two functional site (AmTARSΔ1Δ2), and FLAG-tagged TLR2 were transduced into human-derived HEK 293T cells through PEI, and thereafter, the cells were lysed using a lysis buffer containing 50 mM Tris-HCl (pH 7.5), 100 mM NaCl, 1% NP-40, 1 mM EDTA, 0.25% Na-deoxycholate, and a protease inhibitor cocktail. The cell lysates each were incubated with Strep Tactin beads and washed with a buffer containing 137 mM NaCl, 2.7 mM KCl, 10 mM Na2HPO4, 1.8 mM KH2PO4, and 1 mM EDTA, and proteins attached to the beads were eluted and analyzed by immunoblotting."}, "BMDMs": {"system": "BMDMs", "experiment": "Immunoblotting of AmTARS/TLR2-induced signaling molecules in BMDMs", "assay_type": "cell-based, mouse", "description": "(A and B) Analysis of key molecules that inhibit the MAPK and PI3K/AKT signaling pathways. IL-10 produced by BMDMs pre-treated with inhibitors of ERK (PD98059, […]), p38 (SB203580, […]), MSK1/2 (SB747651A, 10 μM), CREB (666-15, 1 μM), PI3K (Wortmannin, 10 μM), and AKT1/2 (AKT1/2, 10 μM) for 1 h before treatment with either PBS or AmTARS for 24 h (n=6 per group) (A). Flow cytometry analysis of M2 macrophages in BMDMs pre-treated for 1 h with the indicated kinase inhibitors, before treatment with either PBS or AmTARS for 24 h (n=3 per group) (B). (C and D) Western blot analysis of MAPK signaling molecules in lysates of BMDMs (C) or THP1 cells (D) treated for different times with 0.5 μM AmTARS. (E) Western blot analysis of lysates of BMDMs pre-treated with α-IgG (Isotype, 1 μg ml-1) or α-TLR2 (1 μg ml-1) for 1 h before treatment with PBS, AmTARS (0.5 μM), or Pam3 (0.5 μM) for 30 min. (F and G) Western blot analysis of PI3K/AKT signaling molecules in lysates of BMDMs (F) or THP1 cells (G) treated with 0.5 μM AmTARS. (H) AmTARS activates both TLR2/1- and TLR2/6-mediated signaling. Activation of AKT, ERK, and CREB was measured by western blot analysis of lysates of THP1 cells pre-treated with α-IgG, α-TLR1, α-TLR2, or α-TLR6 (1 μg ml-1) for 1 h before treatment for 30 min with PBS or AmTARS (0.5 µM). Data shown in (A and B) are representative of three independent experiments, each with similar results (mean±SEM). P-values were calculated using an unpaired two-tailed Student's t-test. Data shown in (C-H) are representative and repeated at least three times.\nSubsequently, we conducted immunoblotting assays to measure the time-dependent activation of AmTARS/TLR2-induced signaling molecules in both BMDMs and THP1 cells. AmTARS rapidly activated ERK, p38, and MSK1/2 within 15 min and, subsequently, phosphorylation of CREB at Ser133 (which is essential for IL-10 production) within 30 min in BMDMs (FIG. 31C) and THP1 cells (FIG. 31D). We then compared AmTARS-triggered TLR2 signaling with typical ligand-triggered signaling using Pam3CSK4 (the synthetic canonical TLR2/1 agonist, referred to hereafter as Pam3) in BMDMs stimulated for 30 min. […] By contrast, activation of NF-κB was greater in Pam3-treated BMDMs than in AmTARS-treated BMDMs (FIG. 31E)."}}}
{"molecule": "B1", "values": [{"measurement": "co-localization of administered AmTARS (His) in the colon", "setting": "macrophages (F4/80+)", "value": "co-localized mainly with macrophages in the lamina propria"}, {"measurement": "colitis-induced body weight loss", "setting": "[1]", "value": "no effect"}, {"measurement": "damage score", "setting": "[1]", "value": "no effect"}, {"measurement": "disease activity score", "setting": "[1]", "value": "no effect"}, {"measurement": "disruption of the epithelial lining", "setting": "[1]", "value": "no effect"}, {"measurement": "numbers of IL-10-positive macrophages", "setting": "[1]", "value": "did not affect"}, {"measurement": "numbers of inflammatory monocytes", "setting": "[1]", "value": "did not affect"}, {"measurement": "shortening of the intestine", "setting": "[1]", "value": "no effect"}, {"measurement": "increase in B cells", "setting": "[2]", "value": "could not be shown"}, {"measurement": "secretion of IL-6", "setting": "Raw 264.7 cells", "value": "reduced in a protein concentration-dependent manner"}, {"measurement": "secretion of IL-10", "setting": "Raw 264.7 cells", "value": "increasingly secreted in an AmTARS concentration-dependent manner"}, {"measurement": "secretion of TNF-α", "setting": "Raw 264.7 cells", "value": "reduced in a protein concentration-dependent manner"}, {"measurement": "interaction with TLR4 (pull-down)", "setting": "TLR4", "value": "no interaction"}, {"measurement": "activation of CREB, AmTARS versus Pam3", "setting": "BMDMs; BMDMs stimulated for 30 min, 0.5 μM", "value": "significantly greater"}, {"measurement": "time to activation of AKT", "setting": "BMDMs; BMDMs, 0.5 μM AmTARS", "value": "≤ 15", "unit": "min"}, {"measurement": "time to activation of ERK", "setting": "BMDMs; BMDMs, 0.5 μM AmTARS", "value": "≤ 15", "unit": "min"}, {"measurement": "time to activation of MSK1/2", "setting": "BMDMs; BMDMs, 0.5 μM AmTARS", "value": "≤ 15", "unit": "min"}, {"measurement": "time to activation of PI3K", "setting": "BMDMs; BMDMs, 0.5 μM AmTARS", "value": "≤ 15", "unit": "min"}, {"measurement": "time to activation of p38", "setting": "BMDMs; BMDMs, 0.5 μM AmTARS", "value": "≤ 15", "unit": "min"}, {"measurement": "time to inhibition of GSK3β activity (phosphorylation at Ser9)", "setting": "BMDMs; BMDMs, 0.5 μM AmTARS", "value": "≤ 15", "unit": "min"}, {"measurement": "time to phosphorylation of CREB at Ser133", "setting": "BMDMs; BMDMs, 0.5 μM AmTARS", "value": "≤ 30", "unit": "min"}]}
